Target: T1, NY-ESO-1 (human, UniProt P78358 1-180, limits assumed)
T1 construct: Tumor antigen; coated on ELISA plates (ThermoFisher or RayBiotech) and amine-coupled to a CM5 chip for SPR (RayBiotech); also called NY-ESO-1/CTAG1B
Assay: SPR, NY-ESO-1 immobilised on CM5, antibody as analyte, bivalent analyte model
Method: Binding experiments were performed in HBS-EP buffer (10 mM HEPES pH 7.4, 150 mM NaCl, 3.4 mM EDTA, and 0.005% P20 surfactant). Serially diluted antibodies were injected at a flow rate of 30 μL/min for 60 s with a dissociation time of 5 min. The chip was regenerated after each run by sequential injection of 10 mM glycine, pH 3, and 500 mM arginine, pH 8 for 1 min each. For each run, a bovine serum albumin (BSA)-coupled surface was used to subtract non-specific receptor binding.

T1 sequence (P78358 whole entry): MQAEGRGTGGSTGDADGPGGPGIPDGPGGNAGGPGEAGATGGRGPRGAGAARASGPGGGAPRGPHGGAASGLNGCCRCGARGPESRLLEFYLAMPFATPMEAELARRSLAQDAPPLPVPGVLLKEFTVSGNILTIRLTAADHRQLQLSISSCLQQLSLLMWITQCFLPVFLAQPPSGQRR

B1: BC2-3G1 (antibody, V domains shown)
VH: QVQLQQSGPGLVKPSQTLSLTCAISGDSVSSNSAAWNWIRQSPSRGLEWLGRTYYRSKWYNDYAVSVKSRITINPDTSKNQFSLQLNSVTPEDTAVYYCARDLGIAAAGDFDYWGQGTLVTVSS
VL: EIVLTQSPATLSLSPGERATLSCRASQGVSSYLAWYQQKPGQAPRLLIYDASNRATGIPARFSGSGSGTDFTLTISSLEPEDFAVYYCHQGSNWPTFGGGTKVEI
notes: also called BC2-3G lineage member 1; BC2-3G sub-lineage 1
B1: binds.

From US20200270704A1 (University of Texas, published 2020)
